According to patent US20060105385, “Xenobiotic related induction of gene expression” (The University of Sydney, published 2006):

Legend:
Settings in all cases: label: 32P
[1] = target: T1, hPXR-RXR heterodimer (human pregnane X receptor / retinoid X receptor) (UniProt O75469;P19793 O75469:1-434,P19793:1-462); assay: EMSA; efficient gel shift
Experimental: (§1) The hPXR is an orphan nuclear receptor, belonging to the nuclear receptor gene superfamily. […] In order to evaluate the affinity of these putative response elements for HPXR-RXR heterodimers, electromobility shift assays (EMSA) were performed using with in-vitro transcribed/translated hPXR and RXR.

[2] = target: T1, hPXR-RXR heterodimer (human pregnane X …); assay: EMSA; no shift apparent; mutation of the site lowers reporter to 52% of wild type
Experimental: as §1

[3] = target: T1, hPXR-RXR heterodimer (human pregnane X …); assay: EMSA; no shift apparent; described as functionally important by mutagenesis
Experimental: as §1

T1 sequence (O75469 whole entry, chain 1 of 2): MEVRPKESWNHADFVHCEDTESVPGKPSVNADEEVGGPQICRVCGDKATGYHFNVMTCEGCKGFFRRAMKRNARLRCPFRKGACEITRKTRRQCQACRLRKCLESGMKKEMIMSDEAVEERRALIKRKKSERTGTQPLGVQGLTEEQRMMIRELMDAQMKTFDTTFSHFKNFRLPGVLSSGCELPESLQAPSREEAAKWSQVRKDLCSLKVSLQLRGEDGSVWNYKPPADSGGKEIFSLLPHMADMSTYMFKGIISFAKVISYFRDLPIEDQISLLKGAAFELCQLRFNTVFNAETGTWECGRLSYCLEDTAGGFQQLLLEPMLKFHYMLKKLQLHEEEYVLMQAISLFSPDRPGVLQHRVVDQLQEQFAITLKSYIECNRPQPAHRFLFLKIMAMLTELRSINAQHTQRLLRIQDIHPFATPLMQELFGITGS
T1 sequence (P19793 whole entry, chain 2 of 2): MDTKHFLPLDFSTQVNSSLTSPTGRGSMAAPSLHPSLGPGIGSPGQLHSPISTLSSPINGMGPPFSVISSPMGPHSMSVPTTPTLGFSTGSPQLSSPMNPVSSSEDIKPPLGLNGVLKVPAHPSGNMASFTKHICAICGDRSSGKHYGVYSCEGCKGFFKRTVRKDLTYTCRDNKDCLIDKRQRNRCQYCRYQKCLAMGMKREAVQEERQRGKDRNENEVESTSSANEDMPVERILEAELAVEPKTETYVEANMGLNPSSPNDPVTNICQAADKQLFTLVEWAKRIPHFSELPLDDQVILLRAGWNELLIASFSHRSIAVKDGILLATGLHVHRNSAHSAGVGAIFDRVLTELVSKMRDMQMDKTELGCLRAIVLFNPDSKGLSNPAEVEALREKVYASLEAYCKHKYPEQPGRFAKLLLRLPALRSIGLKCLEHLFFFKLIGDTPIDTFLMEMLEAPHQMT

B1: XREM-DR3-1 (dsDNA)
DNA 1: GAATGAACTTGCTGACCCTCT
DNA 2: AGAGGGTCAGCAAGTTCATTC
**Q.** Does B1 bind [1]?
**A.** Result: binds

B2: Prox-ER6 (dsDNA)
DNA 1: ATATGAACTCAAAGGAGGTCAGTG
DNA 2: CACTGACCTCCTTTGAGTTCATAT
**Q.** Does B2 bind [1]?
**A.** Result: binds

B3: XREM-DR6 (dsDNA)
DNA 1: AGGTGAATCACAAGCTGAACTTCT
DNA 2: AGAAGTTCAGCTTGTGATTCACCT
**Q.** Does B3 bind [2]?
**A.** Result: no binding

B4: XREM-DR3-2 (dsDNA)
DNA 1: ATATATTGTTATTGAACTATC
DNA 2: GATAGTTCAATAACAATATAT
**Q.** Does B4 bind [3]?
**A.** Result: no binding
